Three molecules from patent US20230009539A1 (CLEVELAND CLINIC FOUNDATION, published 2023) can be followed below.

The target in experiment [1] is T1, TBK1 (endogenous, HeLa cells) (human (HeLa cells), UniProt Q9UHD2 1-729).
T1 sequence (looked up): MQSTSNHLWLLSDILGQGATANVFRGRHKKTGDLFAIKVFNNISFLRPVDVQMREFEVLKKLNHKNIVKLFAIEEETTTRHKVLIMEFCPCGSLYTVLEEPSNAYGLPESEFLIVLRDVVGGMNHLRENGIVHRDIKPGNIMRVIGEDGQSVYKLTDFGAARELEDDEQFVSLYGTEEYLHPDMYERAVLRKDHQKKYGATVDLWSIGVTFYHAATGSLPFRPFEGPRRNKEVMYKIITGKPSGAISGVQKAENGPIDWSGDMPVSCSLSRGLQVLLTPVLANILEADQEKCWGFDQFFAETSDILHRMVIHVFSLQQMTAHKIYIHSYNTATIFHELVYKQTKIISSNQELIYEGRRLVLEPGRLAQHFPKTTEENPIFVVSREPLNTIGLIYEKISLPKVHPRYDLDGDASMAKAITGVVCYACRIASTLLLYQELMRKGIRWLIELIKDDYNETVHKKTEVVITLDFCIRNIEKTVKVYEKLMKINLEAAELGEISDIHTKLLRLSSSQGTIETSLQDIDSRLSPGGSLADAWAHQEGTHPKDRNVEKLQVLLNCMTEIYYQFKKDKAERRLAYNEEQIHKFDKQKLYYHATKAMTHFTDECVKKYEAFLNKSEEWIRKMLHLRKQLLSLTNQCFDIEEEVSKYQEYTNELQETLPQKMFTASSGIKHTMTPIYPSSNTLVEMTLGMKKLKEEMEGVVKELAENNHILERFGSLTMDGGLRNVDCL
Kind of experiment: anti-Act1 immunoprecipitation from untreated and IL-17-treated HeLa cells (FIG. 4D). The method, then:
(§1) Immunoblot, immunoprecipitation and nuclear fractionation: Cell were harvested and lysed on ice in a lysis buffer containing 0.5% Triton X-100, 20 mM Hepes pH 7.4, 150 mM NaCl, 12.5 mM-glycerophosphate, 1.5 mM MgCl2, 10 mM NaF, 2 mM dithiothreitol, 1 mM sodium orthovanadate, 2 mM EGTA, […], and 1 mM phenylmethylsulfonyl fluoride for 20 minutes, followed by centrifuging at 12,000 rpm for 15 minutes to extract clear lysates. For immunoprecipitation, cell lysates were incubated with 1 μg of antibody and A-sepharose beads at 4 degree overnight. After incubation, the beads were washed four times with lysis buffer and the precipitates were eluted with 2× sample buffer. Elutes and whole cell extracts were resolved on SDS-PAGE followed by immunobloting with antibodies. Nuclear fractionation was performed using NUCLEI EZ PREP kit purchased from Sigma in accordance with the manufacturer's instruction. Nuclear pellets were suspended in 30p1 of nuclear extraction buffer (20 mM HEPES, 400 mM NaCl, 1 mM EDTA, 1 mM EGTA in water, pH 7.9) containing freshly prepared 1 mM DTT and protease inhibitor cocktail. After 1.5 h incubation on ice bath with intermittent vortexing, extracts were centrifuged and supernatant was collected for immunoprecipitation.

The target in experiment [2] is T2, IKKi (endogenous, HeLa cells) (human (HeLa cells), UniProt Q14164 1-716).
T2 sequence (looked up): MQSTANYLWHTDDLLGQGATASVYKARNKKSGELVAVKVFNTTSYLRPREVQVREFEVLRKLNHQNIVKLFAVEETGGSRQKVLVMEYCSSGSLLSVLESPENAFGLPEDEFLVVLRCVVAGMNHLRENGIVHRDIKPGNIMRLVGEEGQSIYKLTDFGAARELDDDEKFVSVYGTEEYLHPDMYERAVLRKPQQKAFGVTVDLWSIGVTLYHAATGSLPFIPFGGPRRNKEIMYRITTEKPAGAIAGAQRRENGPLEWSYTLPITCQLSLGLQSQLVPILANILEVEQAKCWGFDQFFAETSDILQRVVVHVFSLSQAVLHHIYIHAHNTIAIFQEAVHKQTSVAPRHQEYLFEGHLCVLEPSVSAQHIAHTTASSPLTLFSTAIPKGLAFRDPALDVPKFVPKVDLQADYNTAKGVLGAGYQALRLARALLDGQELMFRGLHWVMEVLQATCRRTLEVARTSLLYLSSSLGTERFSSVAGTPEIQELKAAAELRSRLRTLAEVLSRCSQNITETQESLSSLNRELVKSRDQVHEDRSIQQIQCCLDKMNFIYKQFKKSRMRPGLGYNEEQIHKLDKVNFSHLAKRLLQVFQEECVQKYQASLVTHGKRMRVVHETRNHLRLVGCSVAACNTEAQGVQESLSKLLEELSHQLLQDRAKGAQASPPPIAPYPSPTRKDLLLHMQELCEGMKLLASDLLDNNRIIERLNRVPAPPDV
The experiment is described as above. The method, then: as §1

For experiment [3], the target named is T3, Dcp1 (endogenous, HeLa cells) (human (HeLa cells), UniProt Q9NPI6 1-582).
T3 construct: its constructs and phospho-antibody are Dcp1a; also called Dcp1 decapping enzyme; Dcp1a
T3 sequence (looked up): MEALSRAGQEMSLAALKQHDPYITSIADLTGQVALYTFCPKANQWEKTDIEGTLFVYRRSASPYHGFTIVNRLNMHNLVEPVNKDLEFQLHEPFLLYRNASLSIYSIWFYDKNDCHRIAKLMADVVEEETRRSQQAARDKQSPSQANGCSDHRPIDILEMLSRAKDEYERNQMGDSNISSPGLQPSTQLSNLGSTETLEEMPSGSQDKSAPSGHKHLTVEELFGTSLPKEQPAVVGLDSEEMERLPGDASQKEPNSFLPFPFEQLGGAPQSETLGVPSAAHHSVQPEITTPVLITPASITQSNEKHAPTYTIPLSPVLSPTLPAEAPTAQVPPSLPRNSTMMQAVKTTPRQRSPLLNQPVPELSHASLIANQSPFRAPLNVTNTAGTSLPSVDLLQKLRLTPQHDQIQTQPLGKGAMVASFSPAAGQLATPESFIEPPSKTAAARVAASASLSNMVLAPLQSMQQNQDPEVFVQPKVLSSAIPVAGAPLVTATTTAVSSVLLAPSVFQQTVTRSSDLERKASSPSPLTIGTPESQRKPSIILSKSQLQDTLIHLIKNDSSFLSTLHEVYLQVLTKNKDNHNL
Kind of experiment: in situ proximity ligation assay with anti-Act1 and anti-Dcp1, endogenous proteins in HeLa cells, untreated or IL-17.

The target in another experiment is T4, FLAG-hDcp1a (human, UniProt Q9NPI6 1-582).
T4 construct: also called Dcp1-Flag; FLAG-tagged Dcp1; not shown: FLAG tag
T4 sequence (looked up): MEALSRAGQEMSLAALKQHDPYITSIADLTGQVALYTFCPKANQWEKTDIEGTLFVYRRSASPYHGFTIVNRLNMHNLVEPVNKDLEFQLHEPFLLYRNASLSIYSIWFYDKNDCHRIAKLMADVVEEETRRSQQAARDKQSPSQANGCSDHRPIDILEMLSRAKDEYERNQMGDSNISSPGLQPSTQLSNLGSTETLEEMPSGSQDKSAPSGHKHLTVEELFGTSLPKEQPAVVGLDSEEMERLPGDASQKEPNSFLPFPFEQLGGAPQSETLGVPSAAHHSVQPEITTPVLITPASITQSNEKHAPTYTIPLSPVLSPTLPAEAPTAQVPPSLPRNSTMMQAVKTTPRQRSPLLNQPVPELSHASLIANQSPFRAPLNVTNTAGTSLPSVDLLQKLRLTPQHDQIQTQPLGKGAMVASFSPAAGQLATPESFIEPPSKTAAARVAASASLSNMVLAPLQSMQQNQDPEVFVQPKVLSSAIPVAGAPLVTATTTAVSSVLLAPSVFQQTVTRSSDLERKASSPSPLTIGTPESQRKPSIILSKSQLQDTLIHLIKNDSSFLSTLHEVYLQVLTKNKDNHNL
In words: in situ proximity ligation assay (anti-Flag and anti-HA) in HeLa cells co-transfected with Dcp1-FLAG and Act1-HA.

The next experiment addresses T5, FLAG-hIRAK1 (human, UniProt P51617 1-712).
T5 construct: Negative control of the PLA; also called IRAK1-Flag; not shown: FLAG tag
Kind of experiment: in situ proximity ligation assay (anti-Flag and anti-HA) in HeLa cells co-transfected with IRAK1-FLAG and Act1-HA (negative control).

Another experiment concerns the target T6, FLAG-hDcp2 (human, UniProt Q8IU60 1-420).
T6 construct: also called FLAG-tagged Dcp2; not shown: FLAG tag
In words: co-immunoprecipitation with anti-FLAG from transfected HeLa cells, HA blot.

T5 sequence (P51617 whole entry): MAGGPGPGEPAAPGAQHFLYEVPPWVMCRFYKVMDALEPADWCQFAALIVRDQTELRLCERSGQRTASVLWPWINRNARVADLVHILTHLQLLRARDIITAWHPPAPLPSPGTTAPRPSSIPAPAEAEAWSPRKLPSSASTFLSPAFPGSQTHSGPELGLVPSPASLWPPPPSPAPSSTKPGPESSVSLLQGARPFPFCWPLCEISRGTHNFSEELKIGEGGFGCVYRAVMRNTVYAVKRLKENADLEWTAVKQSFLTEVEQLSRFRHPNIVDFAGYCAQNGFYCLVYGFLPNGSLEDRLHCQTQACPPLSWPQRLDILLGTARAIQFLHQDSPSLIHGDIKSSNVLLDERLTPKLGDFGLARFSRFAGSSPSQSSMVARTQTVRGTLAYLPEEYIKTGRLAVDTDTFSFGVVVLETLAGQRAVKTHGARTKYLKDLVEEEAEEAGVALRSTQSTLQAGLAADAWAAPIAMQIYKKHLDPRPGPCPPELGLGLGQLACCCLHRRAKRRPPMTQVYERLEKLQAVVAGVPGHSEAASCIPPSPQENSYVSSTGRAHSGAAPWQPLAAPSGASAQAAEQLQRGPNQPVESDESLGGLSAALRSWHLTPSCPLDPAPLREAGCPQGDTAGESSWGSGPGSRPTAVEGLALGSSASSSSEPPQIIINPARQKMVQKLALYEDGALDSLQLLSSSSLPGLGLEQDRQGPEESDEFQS

B1: Act1 (endogenous, HeLa cells) (other, human (HeLa cells), UniProt O43734 1-574, looked up)
chain: MPPQLQETRMNRSIPVEVDESEPYPSQLLKPIPEYSPEEESEPPAPNIRNMAPNSLSAPTMLHNSSGDFSQAHSTLKLANHQRPVSRQVTCLRTQVLEDSEDSFCRRHPGLGKAFPSGCSAVSEPASESVVGALPAEHQFSFMEKRNQWLVSQLSAASPDTGHDSDKSDQSLPNASADSLGGSQEMVQRPQPHRNRAGLDLPTIDTGYDSQPQDVLGIRQLERPLPLTSVCYPQDLPRPLRSREFPQFEPQRYPACAQMLPPNLSPHAPWNYHYHCPGSPDHQVPYGHDYPRAAYQQVIQPALPGQPLPGASVRGLHPVQKVILNYPSPWDHEERPAQRDCSFPGLPRHQDQPHHQPPNRAGAPGESLECPAELRPQVPQPPSPAAVPRPPSNPPARGTLKTSNLPEELRKVFITYSMDTAMEVVKFVNFLLVNGFQTAIDIFEDRIRGIDIIKWMERYLRDKTVMIIVAISPKYKQDVEGAESQLDEDEHGLHTKYIHRMMQIEFIKQGSMNFRFIPVLFPNAKKEHVPTWLQNTHVYSWPKNKKNILLRLLREEEYVAPPRGPLPTLQVVPL
notes: Endogenous protein in cells or cell lysate; also called CIKS; endogenous Act1
For B1, the binding result in experiment [1], in experiment [2] and in experiment [3] was “binds” throughout.

B2: HA-hAct1 (other, human, UniProt O43734 1-574, looked up)
chain: MPPQLQETRMNRSIPVEVDESEPYPSQLLKPIPEYSPEEESEPPAPNIRNMAPNSLSAPTMLHNSSGDFSQAHSTLKLANHQRPVSRQVTCLRTQVLEDSEDSFCRRHPGLGKAFPSGCSAVSEPASESVVGALPAEHQFSFMEKRNQWLVSQLSAASPDTGHDSDKSDQSLPNASADSLGGSQEMVQRPQPHRNRAGLDLPTIDTGYDSQPQDVLGIRQLERPLPLTSVCYPQDLPRPLRSREFPQFEPQRYPACAQMLPPNLSPHAPWNYHYHCPGSPDHQVPYGHDYPRAAYQQVIQPALPGQPLPGASVRGLHPVQKVILNYPSPWDHEERPAQRDCSFPGLPRHQDQPHHQPPNRAGAPGESLECPAELRPQVPQPPSPAAVPRPPSNPPARGTLKTSNLPEELRKVFITYSMDTAMEVVKFVNFLLVNGFQTAIDIFEDRIRGIDIIKWMERYLRDKTVMIIVAISPKYKQDVEGAESQLDEDEHGLHTKYIHRMMQIEFIKQGSMNFRFIPVLFPNAKKEHVPTWLQNTHVYSWPKNKKNILLRLLREEEYVAPPRGPLPTLQVVPL
notes: Printed as HA-hAct1 in the constructs and Act1-HA in the legends; also called Act1-HA; not shown: HA tag
B2: the results for the binding result with FLAG-hDcp1a and with FLAG-hIRAK1 were “binds” and “no binding”, respectively.

B3: HA-TBK1 (enzyme, not shown: small tags and cut ends)
chain: MQSTSNHLWLLSDILGQGATANVFRGRHKKTGDLFAIKVFNNISFLRPVDVQMREFEVLKKLNHKNIVKLFAIEEETTTRHKVLIMEFCPCGSLYTVLEEPSNAYGLPESEFLIVLRDVVGGMNHLRENGIVHRDIKPGNIMRVIGEDGQSVYKLTDFGAARELEDDEQFVSLYGTEEYLHPDMYERAVLRKDHQKKYGATVDLWSIGVTFYHAATGSLPFRPFEGPRRNKEVMYKIITGKPSGAISGVQKAENGPIDWSGDMPVSCSLSRGLQVLLTPVLANILEADQEKCWGFDQFFAETSDILHRMVIHVFSLQQMTAHKIYIHSYNTATIFHELVYKQTKIISSNQELIYEGRRLVLEPGRLAQHFPKTTEENPIFVVSREPLNTIGLIYEKISLPKVHPRYDLDGDASMAKAITGVVCYACRIASTLLLYQELMRKGIRWLIELIKDDYNETVHKKTEVVITLDFCIRNIEKTVKVYEKLMKINLEAAELGEISDIHTKLLRLSSSQGTIETSLQDIDSRLSPGGSLADAWAHQEGTHPKDRNVEKLQVLLNCMTEIYYQFKKDKAERRLAYNEEQIHKFDKQKLYYHATKAMTHFTDECVKKYEAFLNKSEEWIRKMLHLRKQLLSLTNQCFDIEEEVSKYQEYTNELQETLPQKMFTASSGIKHTMTPIYPSSNTLVEMTLGMKKLKEEMEGVVKELAENNHILERFGSLTMDGGLRNVDCL
notes: also called HA-tagged TBK1
Turning to B3, the binding result with FLAG-hDcp2 was “no binding”.
